Here are results for 2 proteins from article PMC4265155, “A highly charged region in the middle domain of plant endoplasmic reticulum (ER)-localized heat-shock protein 90 is required for resistance to tunicamycin or high calcium-induced ER stresses” (Journal of Experimental Botany, 2014).

Substrate in the data set: Nc1ncnc2c1ncn2[C@@H]1O[C@H](COP(=O)(O)OP(=O)(O)OP(=O)(O)O)[C@@H](O)[C@H]1O
As to the kind of experiment: NADH-coupled ATPase assay (pyruvate kinase / lactate dehydrogenase). It counts as biochemical, Arabidopsis thaliana. The following applies: geldanamycin-sensitive activity, 25 mM HEPES pH 7.5, 5 mM MgCl2, 400 mM KCl, 0.03% Tween 20, 10% glycerol. The source says: NADH-coupled ATPase assay (pyruvate kinase / lactate dehydrogenase) on HSP90.7 (AtHSP90.7; mature form R73–L823)

Setting [1] is: HSP90.7^Δ22 (D488–G509 deleted by SpeI cleavage and religation; a SpeI-site scar may remain).

B1: HSP90.7 (AtHSP90.7; mature form R73–L823) (Arabidopsis thaliana; DEL488-509) (protein)
chain: RSNAEKFEFQAEVSRLMDIIINSLYSNKDIFLRELISNASDALDKIRFLALTDKDVLGEGDTAKLEIQIKLDKAKKILSIRDRGIGMTKEDLIKNLGTIAKSGTSAFVEKMQSSGDLNLIGQFGVGFYSAYLVADYIEVISKHNDDSQYVWESKANGKFAVSEDTWNEPLGRGTEIRLHLRDEAGEYLEESKLKELVKRYSEFINFPISLWASKEVETEVPVEEDESADEETETTSTEEEKEEDAEEEDGEKKQKTKKVKETVYEWELLNDVKAIWLRSPKEVTEEEYTKFYHSLSKDFTDEKPMAWSHFNAEGDVEFKAVLYVPPKAPHDLYESYYNSNKANLKLYVRRVFISDEFDELLPKYLSFLKGLVDSDTLPLNVSREMLQQHSSLKTIKKKLIRKALDMIRKLAEEDPQYTKFWNEFGKSVKLGIIEDAANRNRLAKLLRFETTKSDGKLTSLDQYIKRMKKSQKDIFYITGSSKEQLEKSPFLERLIKKGYEVIFFTDPVDEYLMQYLMDYEDKKFQNVSKEGLKVGKDSKDKELKEAFKELTKWWKGNLASENVDDVKISNRLADTPCVVVTSKFGWSANMERIMQSQTLSDANKQAYMRGKRVLEINPRHPIIKELKDRIASDPEDESVKETAQLMYQTALIESGFILTDPKDFAARIYNSVKSGLNISPDAVADEEIEAAEEPETSEATETKSDDLAGGLNIEAEPVEQQEENTKDEL
notes: predicted mature form R73-L823, signal peptide removed, vector p11, E. coli BL21(DE3)-pRIL, His6-tag cut with TEV protease, size-exclusion purified
In the case of B1, under setting [1], the Michaelis constant (Km) stood at 440 ± 110 µM, the kcat was found to be 0.039 ± 0.0025 s⁻¹ and the kcat/Km came to 89 ± 27.8 M⁻¹ s⁻¹.

B2: HSP90.7 (AtHSP90.7; mature form R73–L823) (Arabidopsis thaliana) (protein)
chain: RSNAEKFEFQAEVSRLMDIIINSLYSNKDIFLRELISNASDALDKIRFLALTDKDVLGEGDTAKLEIQIKLDKAKKILSIRDRGIGMTKEDLIKNLGTIAKSGTSAFVEKMQSSGDLNLIGQFGVGFYSAYLVADYIEVISKHNDDSQYVWESKANGKFAVSEDTWNEPLGRGTEIRLHLRDEAGEYLEESKLKELVKRYSEFINFPISLWASKEVETEVPVEEDESADEETETTSTEEEKEEDAEEEDGEKKQKTKKVKETVYEWELLNDVKAIWLRSPKEVTEEEYTKFYHSLSKDFTDEKPMAWSHFNAEGDVEFKAVLYVPPKAPHDLYESYYNSNKANLKLYVRRVFISDEFDELLPKYLSFLKGLVDSDTLPLNVSREMLQQHSSLKTIKKKLIRKALDMIRKLAEEDPDEIHDDEKKDVEKSGENDEKKGQYTKFWNEFGKSVKLGIIEDAANRNRLAKLLRFETTKSDGKLTSLDQYIKRMKKSQKDIFYITGSSKEQLEKSPFLERLIKKGYEVIFFTDPVDEYLMQYLMDYEDKKFQNVSKEGLKVGKDSKDKELKEAFKELTKWWKGNLASENVDDVKISNRLADTPCVVVTSKFGWSANMERIMQSQTLSDANKQAYMRGKRVLEINPRHPIIKELKDRIASDPEDESVKETAQLMYQTALIESGFILTDPKDFAARIYNSVKSGLNISPDAVADEEIEAAEEPETSEATETKSDDLAGGLNIEAEPVEQQEENTKDEL
notes: as for B1
Regarding B2, the Km came out at 770 ± 180 µM, the kcat was 0.0377 ± 0.00283 s⁻¹ and the catalytic efficiency (kcat/Km) came to 49 ± 15.2 M⁻¹ s⁻¹.
